# Target: T1, DLL4 (DLL ECD His tag, R&D 1506-D4-050) (UniProt Q9NR61 27-529)
# T1 construct: extracellular domain; bought
# Assay: BIACORE (SPR), DVD-Ig against DLL4
Binder,Kd,koff,kon
"DVD445 (bispecific antibody, human IgG1, kappa, DVD-Ig; N-term; VD DLL4 (AB069), C-term; VD VEGF (AB071); HC linker short, LC linker short; also called DVD-Ig DVD445; DVD445H) heavy: not shown light: DIVMTQSPDSLAVSLGERATISCRASESVDNYGISFMKWFQQKPGQPPKLLIYAASNQGSGVPDRFSGSGSGTDFTLTISSLQAEDVAVYYCQQSKEVPWTFGGGTKVEIKRTVAAPDIQMTQSPSSLSASVGDRVTITCRASQVIRRSLAWYQQKPGKAPKLLIYAASNLASGVPSRFSGSGSGTDFTLTISSLQPEDFATYYCQQSNTSPLTFGQGTKVEIKRTVAAPSVFIFPPSDEQLKSGTASVVCLLNNFYPREAKVQWKVDNALQSGNSQESVTEQDSKDSTYSLSSTLTLSKADYEKHKVYACEVTHQGLSSPVTKSFNRGEC",5.01 nM,0.000646 s⁻¹,129000 M⁻¹ s⁻¹
"DVD451 (bispecific antibody, human IgG1, kappa, L234A L235A, DVD-Ig; N-term; VD DLL4 (AB069), C-term; VD VEGF (AB071); HC linker long, LC linker long; also called DVD-Ig DVD451; DVD451H) heavy: not shown light: DIVMTQSPDSLAVSLGERATISCRASESVDNYGISFMKWFQQKPGQPPKLLIYAASNQGSGVPDRFSGSGSGTDFTLTISSLQAEDVAVYYCQQSKEVPWTFGGGTKVEIKRTVAAPSVFIFPPDIQMTQSPSSLSASVGDRVTITCRASQVIRRSLAWYQQKPGKAPKLLIYAASNLASGVPSRFSGSGSGTDFTLTISSLQPEDFATYYCQQSNTSPLTFGQGTKVEIKRTVAAPSVFIFPPSDEQLKSGTASVVCLLNNFYPREAKVQWKVDNALQSGNSQESVTEQDSKDSTYSLSSTLTLSKADYEKHKVYACEVTHQGLSSPVTKSFNRGEC",14 nM,0.001 s⁻¹,71700 M⁻¹ s⁻¹
"DVD457 (bispecific antibody, human IgG1, kappa, L234A L235A, DVD-Ig; N-term; VD DLL4 (AB069), C-term; VD VEGF (AB071); HC linker long, LC linker short; also called DVD-Ig DVD457; DVD457H) heavy: not shown light: DIVMTQSPDSLAVSLGERATISCRASESVDNYGISFMKWFQQKPGQPPKLLIYAASNQGSGVPDRFSGSGSGTDFTLTISSLQAEDVAVYYCQQSKEVPWTFGGGTKVEIKRTVAAPDIQMTQSPSSLSASVGDRVTITCRASQVIRRSLAWYQQKPGKAPKLLIYAASNLASGVPSRFSGSGSGTDFTLTISSLQPEDFATYYCQQSNTSPLTFGQGTKVEIKRTVAAPSVFIFPPSDEQLKSGTASVVCLLNNFYPREAKVQWKVDNALQSGNSQESVTEQDSKDSTYSLSSTLTLSKADYEKHKVYACEVTHQGLSSPVTKSFNRGEC",4.82 nM,0.000578 s⁻¹,120000 M⁻¹ s⁻¹
"DVD463 (bispecific antibody, human IgG1, kappa, DVD-Ig; N-term; VD DLL4 (AB069), C-term; VD VEGF (AB071); HC linker short, LC linker long; also called DVD-Ig DVD463; DVD463H) heavy: not shown light: DIVMTQSPDSLAVSLGERATISCRASESVDNYGISFMKWFQQKPGQPPKLLIYAASNQGSGVPDRFSGSGSGTDFTLTISSLQAEDVAVYYCQQSKEVPWTFGGGTKVEIKRTVAAPSVFIFPPDIQMTQSPSSLSASVGDRVTITCRASQVIRRSLAWYQQKPGKAPKLLIYAASNLASGVPSRFSGSGSGTDFTLTISSLQPEDFATYYCQQSNTSPLTFGQGTKVEIKRTVAAPSVFIFPPSDEQLKSGTASVVCLLNNFYPREAKVQWKVDNALQSGNSQESVTEQDSKDSTYSLSSTLTLSKADYEKHKVYACEVTHQGLSSPVTKSFNRGEC",3.82 nM,0.000472 s⁻¹,123000 M⁻¹ s⁻¹
"DVD515 (bispecific antibody, human IgG1, kappa, DVD-Ig; N-term; VD DLL4 (AB073), C-term; VD VEGF (AB071); HC linker short, LC linker short; also called DVD-Ig DVD515; DVD515H) heavy: not shown light: QAVVTQESALTTSPGETVTLTCRSSTGAVTTSNYANWVQEKPDHLFTGLIGGTNNRAPGVPARFSGSLIGDKAALTITGAQTEDEAIYFCALWYSNHWVFGGGTKLTVLGQPKAAPDIQMTQSPSSLSASVGDRVTITCRASQVIRRSLAWYQQKPGKAPKLLIYAASNLASGVPSRFSGSGSGTDFTLTISSLQPEDFATYYCQQSNTSPLTFGQGTKVEIKRTVAAPSVFIFPPSDEQLKSGTASVVCLLNNFYPREAKVQWKVDNALQSGNSQESVTEQDSKDSTYSLSSTLTLSKADYEKHKVYACEVTHQGLSSPVTKSFNRGEC",1.51 nM,0.0016 s⁻¹,1.06e+06 M⁻¹ s⁻¹
"DVD521 (bispecific antibody, human IgG1, kappa, lambda, L234A L235A, DVD-Ig; N-term; VD DLL4 (AB073), C-term; VD VEGF (AB071); HC linker long, LC linker long; also called DVD-Ig DVD521; DVD521H) heavy: not shown light: QAVVTQESALTTSPGETVTLTCRSSTGAVTTSNYANWVQEKPDHLFTGLIGGTNNRAPGVPARFSGSLIGDKAALTITGAQTEDEAIYFCALWYSNHWVFGGGTKLTVLGQPKAAPSVTLFPPDIQMTQSPSSLSASVGDRVTITCRASQVIRRSLAWYQQKPGKAPKLLIYAASNLASGVPSRFSGSGSGTDFTLTISSLQPEDFATYYCQQSNTSPLTFGQGTKVEIKRTVAAPSVFIFPPSDEQLKSGTASVVCLLNNFYPREAKVQWKVDNALQSGNSQESVTEQDSKDSTYSLSSTLTLSKADYEKHKVYACEVTHQGLSSPVTKSFNRGEC",1.77 nM,0.00168 s⁻¹,947000 M⁻¹ s⁻¹
"DVD527 (bispecific antibody, human IgG1, kappa, DVD-Ig; N-term; VD DLL4 (AB073), C-term; VD VEGF (AB071); HC linker long, LC linker short; also called DVD-Ig DVD527; DVD527H) heavy: not shown light: QAVVTQESALTTSPGETVTLTCRSSTGAVTTSNYANWVQEKPDHLFTGLIGGTNNRAPGVPARFSGSLIGDKAALTITGAQTEDEAIYFCALWYSNHWVFGGGTKLTVLGQPKAAPDIQMTQSPSSLSASVGDRVTITCRASQVIRRSLAWYQQKPGKAPKLLIYAASNLASGVPSRFSGSGSGTDFTLTISSLQPEDFATYYCQQSNTSPLTFGQGTKVEIKRTVAAPSVFIFPPSDEQLKSGTASVVCLLNNFYPREAKVQWKVDNALQSGNSQESVTEQDSKDSTYSLSSTLTLSKADYEKHKVYACEVTHQGLSSPVTKSFNRGEC",1.9 nM,0.00109 s⁻¹,574000 M⁻¹ s⁻¹
"DVD533 (bispecific antibody, human IgG1, kappa, lambda, L234A L235A, DVD-Ig; N-term; VD DLL4 (AB073), C-term; VD VEGF (AB071); HC linker short, LC linker long; also called DVD-Ig DVD533; DVD533H) heavy: not shown light: QAVVTQESALTTSPGETVTLTCRSSTGAVTTSNYANWVQEKPDHLFTGLIGGTNNRAPGVPARFSGSLIGDKAALTITGAQTEDEAIYFCALWYSNHWVFGGGTKLTVLGQPKAAPSVTLFPPDIQMTQSPSSLSASVGDRVTITCRASQVIRRSLAWYQQKPGKAPKLLIYAASNLASGVPSRFSGSGSGTDFTLTISSLQPEDFATYYCQQSNTSPLTFGQGTKVEIKRTVAAPSVFIFPPSDEQLKSGTASVVCLLNNFYPREAKVQWKVDNALQSGNSQESVTEQDSKDSTYSLSSTLTLSKADYEKHKVYACEVTHQGLSSPVTKSFNRGEC",2.22 nM,0.00133 s⁻¹,598000 M⁻¹ s⁻¹
"DVD491 (bispecific antibody, human IgG1, kappa, DVD-Ig; N-term; VD DLL4 (AB072), C-term; VD VEGF (AB071); HC linker short, LC linker short; also called DVD-Ig DVD491; DVD491H) heavy: not shown light: DIQMTQSSSYLSVSLGGRVTITCKASDHINNWLAWYQQKPGNAPRLLISGATSLETGVPSRFSGSGSGKDYTLSITSLQTEDVATYYCQQYWSIPLTFGAGTKLELKRTVAAPDIQMTQSPSSLSASVGDRVTITCRASQVIRRSLAWYQQKPGKAPKLLIYAASNLASGVPSRFSGSGSGTDFTLTISSLQPEDFATYYCQQSNTSPLTFGQGTKVEIKRTVAAPSVFIFPPSDEQLKSGTASVVCLLNNFYPREAKVQWKVDNALQSGNSQESVTEQDSKDSTYSLSSTLTLSKADYEKHKVYACEVTHQGLSSPVTKSFNRGEC",0.237 nM,6.35e-05 s⁻¹,267000 M⁻¹ s⁻¹
"DVD497 (bispecific antibody, human IgG1, kappa, DVD-Ig; N-term; VD DLL4 (AB072), C-term; VD VEGF (AB071); HC linker long, LC linker long; also called DVD-Ig DVD497; DVD497H) heavy: not shown light: DIQMTQSSSYLSVSLGGRVTITCKASDHINNWLAWYQQKPGNAPRLLISGATSLETGVPSRFSGSGSGKDYTLSITSLQTEDVATYYCQQYWSIPLTFGAGTKLELKRTVAAPSVFIFPPDIQMTQSPSSLSASVGDRVTITCRASQVIRRSLAWYQQKPGKAPKLLIYAASNLASGVPSRFSGSGSGTDFTLTISSLQPEDFATYYCQQSNTSPLTFGQGTKVEIKRTVAAPSVFIFPPSDEQLKSGTASVVCLLNNFYPREAKVQWKVDNALQSGNSQESVTEQDSKDSTYSLSSTLTLSKADYEKHKVYACEVTHQGLSSPVTKSFNRGEC",0.266 nM,7.12e-05 s⁻¹,268000 M⁻¹ s⁻¹
"DVD503 (bispecific antibody, human IgG1, kappa, DVD-Ig; N-term; VD DLL4 (AB072), C-term; VD VEGF (AB071); HC linker long, LC linker short; also called DVD-Ig DVD503; DVD503H) heavy: not shown light: DIQMTQSSSYLSVSLGGRVTITCKASDHINNWLAWYQQKPGNAPRLLISGATSLETGVPSRFSGSGSGKDYTLSITSLQTEDVATYYCQQYWSIPLTFGAGTKLELKRTVAAPDIQMTQSPSSLSASVGDRVTITCRASQVIRRSLAWYQQKPGKAPKLLIYAASNLASGVPSRFSGSGSGTDFTLTISSLQPEDFATYYCQQSNTSPLTFGQGTKVEIKRTVAAPSVFIFPPSDEQLKSGTASVVCLLNNFYPREAKVQWKVDNALQSGNSQESVTEQDSKDSTYSLSSTLTLSKADYEKHKVYACEVTHQGLSSPVTKSFNRGEC",0.192 nM,4.72e-05 s⁻¹,246000 M⁻¹ s⁻¹
